Reference: patent US10500274B2, “Methods for reducing viral load in HIV-1 infected patients” (CytoDyn Inc., priority 2008, dated 2019)
Several values for one entry are separate records, joined by “and”; a condition that tells them apart may be missing. Equal entries are not always repeated. Where two headings read alike, the source gives them in different places.

Tests used:
R5-tropic HIV-1 = test: Phase 1b clinical study: plasma HIV-1 RNA; format: in vivo, human
Experimental: (§1) Plasma HIV-1 RNA levels were determined with the Cobas Amplicor HIV-1 Monitor Test (Version 1.5; Roche Diagnostics, Branchburg, N.J.). Samples <400 copies/mL were re-analyzed with the Ultrasensitive Monitor Method. Co-receptor tropism was determined at screening and Days 1, 8, 29 and 59 (Trofile™ assay, Monogram Biosciences, Inc., South San Francisco, Calif.). Viral susceptibility was determined on Days 1 and 59 with the Phenosense™ HIV Entry assay. Results obtained with CCR5^+ target cells were reported as Fold Change or relative EC50 (rEC50), which was defined as (EC50 test isolate)/(EC50 reference virus). […] Maximum percent inhibitions were determined from the plateaus of the inhibition curves. The reference virus was HIV-192HT594, a low-passage dual-tropic isolate. GeneSeq™ (Monogram Biosciences) was used to assess HIV-1 subtype and genotypic susceptibility to protease and reverse transcriptase inhibitors.
Statistical analyses were performed on log10 transformed HIV-1 RNA data, and changes were calculated relative to baseline (Day 1 pre-dose). Treatment and placebo groups were compared using an analysis of variance (ANOVA) model. […] In addition, 2-sided paired t-tests were used to evaluate changes from baseline in CCR5^+ lymphocytes. Where necessary, end-of-study lymphocyte data were used in place of missing baseline data. […] AUC∞ values for individual subjects were used in the model. Clinical Trial Design and Study Results:
The subjects comprised 31 males and 8 females, and their median age, CD4 counts and plasma HIV-1 RNA levels at baseline were 40.3 years, 484 cells/μL and 26,900 copies/mL, respectively Fifteen subjects reported prior use of antiretroviral therapy, and seven were co-infected with hepatitis C virus (HCV). All viruses were subtype B, and baseline genotypic resistance to existing drugs was limited to single-class resistance in two subjects in the 2 mg/kg group and a single subject in each of the other groups. The mean infusion time was 36 minutes, and all subjects completed the 58-day follow-up period. All patients were screened prior to the study for the presence of virus that utilizes only CCR5 as the entry coreceptor, i.e., CCR5-tropic virus.

[1] = human, in vivo; for Peak serum concentration (average) / mean time to last observation (tlast) / volume of distribution (average): iv
Text: PK metrics were estimated using non-compartmental methods.

[2] = tested on: HIV-1 isolates of study subjects; test: PhenoSense HIV Entry assay on viruses of Phase 1b subjects; format: cell-based
Experimental: as §1, with “assay.” for “assay. Results obtained with CCR5^+ target cells were reported as Fold Change or relative EC50 (rEC50), which was defined as (EC50 test isolate)/(EC50 reference virus).”

[3] = parameters: species or system human; conditions: in vivo, sc
Text: Subjects were followed for a total of 58 days for safety and antiviral effects. Entry criteria included: HIV-1 RNA >5,000 copies/mL, R5 virus, […], no antiretroviral therapy <12 weeks.

CCR5 lymphocytes = test: Phase 1a clinical study: coating of CCR5 cells by PRO 140; format: in vivo, human; conditions: single IV 2 mg/kg
Experimental: Individuals were treated in sequential, dose-rising cohorts of 5 subjects (4 active and 1 placebo) each and evaluated for up to 120 days post-treatment. […] Safety assessments consisted of monitoring the following: vital signs (blood pressure, pulse, temperature, etc; hematology (hemoglobin, hematocrit, leukocytes, platelets, etc.); serum chemistries (AST/ALT, alkaline phosphatase, BUN, creatinine, etc.); urinalysis (pH, specific gravity, protein, glucose, leukocytes, etc.); and ECGs (12-lead).
Whole blood specimens were combined separately with the indicated phycoerythrin-labeled anti-CCR5 antibodies or with appropriate isotype-control antibodies. Erythocytes were lysed and leukocytes were stabilized using the ImmunoPrep Reagent System (Beckman Coulter), and the cells were analyzed on a TQ Prep™ flow cytometry workstation (Beckman Coulter). Data were expressed as the percent of CCR5 cells relative to all cells gated in the analysis.

[4] = tested on: HIV-1JR-FL envelope-mediated membrane fusion; test: microbe, parasite or virus in culture; format: cell-based; conditions: inhibitor alone, experiment depicted in FIG. 15A; read-out: IC90

B1: PRO 140: humanized IgG4,κ anti-CCR5 mAb, humanized version of the murine mAb PA14 (antibody, chains of the INN, looked up, V domains shown)
VH: EVQLVESGGGLVKPGGSLRLSCAASGYTFSNYWIGWVRQAPGKGLEWIGDIYPGGNYIRNNEKFKDKTTLSADTSKNTAYLQMNSLKTEDTAVYYCGSSFGSNYVFAWFTYWGQGTLVTVSS
VL: DIVMTQSPLSLPVTPGEPASISCRSSQRLLSSYGHTYLHWYLQKPGQSPQLLIYEVSNRFSGVPDRFSGSGSGTDFTLKISRVEAEDVGVYYCSQSTHVPLTFGQGTKVEIK
With B1 the “AUC50, exposure required to achieve 50% of Emax” value (R5-tropic HIV-1; Emax model) was 43.7 ± 15.6 mg·days/L, the “Mean HIV-1 RNA reduction (maximum)” value (R5-tropic HIV-1; HIV-infected adults, single IV 0.5 mg/kg) was 0.58 log10 and the “day by which viral loads returned to baseline” value (R5-tropic HIV-1; all treatment groups) was ≤ 29 days. For the same molecule, the “lowest documented HIV-1 RNA level on study” value (R5-tropic HIV-1; human, in vivo) was 61 copies/mL, the “Log10 change from baseline in HIV-1 RNA: Mean (±SD) of individual nadirs” value (“Log10 change … (±SD) of individual nadirs” for short) (R5-tropic HIV-1; single IV 0.5 mg/kg) was −0.58 ± 0.30 log10 and the “antiviral response rate (subjects with ≥1.0 log10 reduction at any time)” value (R5-tropic HIV-1; single IV 0.5 mg/kg) was 10%. For the same molecule, the “mean log10 decline in viral load at Day 10” value (R5-tropic HIV-1; single IV 0.5 mg/kg) was 0.37 log10, the “Log10 change from baseline in HIV-1 RNA: Mean (±SD) at Day 10” value (“Log10 change … (±SD) at Day 10” below) (R5-tropic HIV-1; single IV 0.5 mg/kg, 0.5 mg/kg) was −0.37 log10 and −0.37 ± 0.54 log10 and the “Log10 change … (±SD) of individual nadirs” value (R5-tropic HIV-1; single IV 2 mg/kg) was −1.20 ± 0.63 log10. For the same molecule, the “Mean HIV-1 RNA reduction (maximum)” value (R5-tropic HIV-1; single IV 2 mg/kg) was 1.20 log10, the “antiviral response rate (subjects with ≥1.0 log10 reduction at any time)” value (R5-tropic HIV-1; single IV 2 mg/kg) was 60% and the “mean log10 decline in viral load at Day 10” value (R5-tropic HIV-1; single IV 2 mg/kg) was 1.04 log10. For the same molecule, the “Individual HIV-1 RNA reductions (ranged to)” value (R5-tropic HIV-1; single IV 2 mg/kg, 2 mg/kg) was “up to 2.5 log10 and ≤ 2.5 log10”, the “Log10 change … (±SD) at Day 10” value (R5-tropic HIV-1; single IV 2 mg/kg, 2 mg/kg) was −1.04 log10 and −1.04 ± 0.45 log10 and the “Mean HIV-1 RNA reduction (average maximum decrease of viral load)” value (R5-tropic HIV-1; single IV 5 mg/kg) was 1.83 log10. The “antiviral response rate (subjects with ≥1.0 log10 reduction at any time)” value (R5-tropic HIV-1; single IV 5 mg/kg) was 100%, the “day on which mean viral load reductions of 1 log10 were first observed” value (R5-tropic HIV-1; single IV 5 mg/kg) was 5 Day and the “mean log10 decline in viral load at Day 10 (nine days post-treatment)” value (R5-tropic HIV-1; single IV 5 mg/kg) was 1.70 log10. The “persistence of mean 1 log10 viral load reduction post-treatment” value (R5-tropic HIV-1; single IV 5 mg/kg) was 2-3 weeks, the “viral load change at day 22” value (R5-tropic HIV-1; single IV 5 mg/kg) was −0.73 log and the “Individual HIV-1 RNA reductions (ranged to)” value (R5-tropic HIV-1; single IV 5 mg/kg, 5 mg/kg) was “up to 2.5 log10 and ≤ 2.5 log10”. For the same molecule, the “Log10 change … (±SD) at Day 10” value (R5-tropic HIV-1; single IV 5 mg/kg, 5 mg/kg) was −1.70 log10 and −1.70 ± 0.49 log10, the “Log10 change … (±SD) of individual nadirs” value (R5-tropic HIV-1; single IV 5 mg/kg, 5 mg/kg) was −1.8 log10 and −1.84 ± 0.41 log10 and the “time of peak concentrations post-infusion” value [1] was 30 to 60 min. For the same molecule, the “Peak serum concentration (average)” value ([1]; 0.5 mg/kg) was 13 µg/mL, the “mean time to last observation (tlast)” value ([1]; 0.5 mg/kg) was 6.1 days and the “volume of distribution (average)” value ([1]; 0.5 mg/kg) was 8.4 L. The “Peak serum concentration (average)” value ([1]; 2 mg/kg) was 61 µg/mL, the “mean time to last observation (tlast)” value ([1]; 2 mg/kg) was 18.2 days and the “volume of distribution (average)” value ([1]; 2 mg/kg) was 13.8 L. For the same molecule, the “Peak serum concentration (average)” value ([1]; 5 mg/kg) was 173 µg/mL, the “mean time to last observation (tlast)” value ([1]; 5 mg/kg) was 18.9 days and the “volume of distribution (average)” value ([1]; 5 mg/kg) was 7.1 L. The “change in viral susceptibility, baseline to day 59 (in words)” value ([2]; IC50 or Fold Change) was “No change from baseline to day 59”, the “Mean Maximum Percent Inhibition (MPI)” value ([2]; baseline) was 99% and 98.9±1.5% and the “variation of baseline rIC50 values across the 39 subjects” value ([2]; baseline) was 6.2 fold. For the same molecule, the “Mean rIC50 (IC50 test isolate / IC50 reference virus)” value ([2]; baseline, viruses of PRO 140-treated subjects) was 2.0 (range: 0.83-5.1), the “Mean Maximum Percent Inhibition (MPI)” value ([2]; post-treatment (end of study)) was 99% and 99.0±1.0% and the administration site reactions [3] was “mild in intensity and resolved within one to two days”. The “drug-related serious adverse events” value [3] was “no drug-related serious adverse events”, the tolerability [3] was “generally well tolerated compared to placebo” and the “coating of CCR5 lymphocytes (in words)” value (CCR5 lymphocytes) was “effectively coats CCR5 lymphocytes without cellular depletion for two weeks”. For the same molecule, the IC90 [4] was 111 nM.
